Experimental data from patent publication US20240165282A1, “CONFORMATIONAL CONSTRAINED SOMATOSTATIN RECEPTOR 3 PEPTIDE LIGANDS AND THEIR CONJUGATES AND USES THEREOF” (STARGET PHARMA LTD., priority 2021, published 2024).

Target: human cloned somatostatin receptor 2 (human) (UniProt P30874)
Experiment: cell-based or functional assay

human cloned somatostatin receptor 2 (human), sequence (P30874 whole entry): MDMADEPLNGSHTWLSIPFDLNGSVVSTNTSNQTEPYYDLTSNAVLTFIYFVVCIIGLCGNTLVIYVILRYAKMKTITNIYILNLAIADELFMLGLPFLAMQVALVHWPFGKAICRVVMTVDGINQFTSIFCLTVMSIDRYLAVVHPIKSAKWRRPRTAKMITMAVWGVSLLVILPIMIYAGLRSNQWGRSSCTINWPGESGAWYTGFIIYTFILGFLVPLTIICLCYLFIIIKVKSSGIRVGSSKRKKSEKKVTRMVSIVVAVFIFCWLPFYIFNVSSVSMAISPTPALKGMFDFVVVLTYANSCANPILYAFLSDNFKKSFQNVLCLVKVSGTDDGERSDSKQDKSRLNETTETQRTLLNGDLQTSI

Cellular Internalization EC50 (β-Arrestin Luminescence Assay): 3 nM
Efficacy - maximal response: 47500 RLU
Substance: SRIF-28 (from UniProt P61278 89-116) (ligand)
